Measured values from PMC8556268 (Communications Biology, 2021).
“And” between values parts separate entries of the source, which are not always exact repeats. Equal entries are not always repeated.

Assays:
Conditions in all cases: both partners purified
[1] = biological target: T1, SARS-CoV-2 spike protein receptor-binding domain (RBD) (SARS-CoV-2, strain  …, UniProt P0DTC2); assay: ELISA
T1 construct: also called SARS-CoV-2 RBD; SARS RBD; source: provided by Roland Strong, Fred Hutchinson Cancer Research Center

[2] = biological target: T2, SARS-CoV-2 spike protein receptor-binding domain (RBD), coated on ELISA plates (SARS-CoV-2, strain  …, UniProt P0DTC2); assay: ELISA
T2 construct: also called SARS-CoV-2 RBD; SARS-CoV2 RBD; source: provided (Roland Strong, Fred Hutchinson Cancer Research Center)

[3] = biological target: enzymatically biotinylated SARS-CoV-2 spike protein receptor-binding domain (RBD) (SARS-CoV-2, strain  …, UniProt P0DTC2)
[4] = biological target: enzymatically biotinylated SARS-CoV-2 RBD, loaded on streptavidin biosensors (SARS-CoV-2, strain  …, UniProt P0DTC2)

Row | Binder | EC50 [1] [nM] | also measured
1 | tcTRP9_(3)-VHH678_(3) (VHH, also called tcTRP9x3_VHH6783; construct 678; source: E. coli BL21(DE3)-RIL, purified (Ni-NTA, dialysis into 1x PBS)) VHH: QVQLQESGGGLVQAGGSLRLSCAASGRTFSEYAMGWFRQAPGKEREFVATISWSGGSTYYTRSVKGRFTISRDNAKNTVYLQMNSLKPDDTAVYYCAAAGLGTVVSEWDYDYDYWGQGTQVTVSS | 2.06 | 
2 | tcTRP9_(3)-VHH680_(3) (VHH, also called tcTRP9x3_VHH6803; construct 680; source: E. coli BL21(DE3)-RIL, purified (Ni-NTA, dialysis into 1x PBS)) VHH: QVQLQESGGGLVQAGGSLRLSCAASGRTFSEYAMGWFRQAPGKEREFVATISWSGGSTYYTRSVKGRFTISRDNAKNTVYLQMNSLKPDDTAVYYCAAAGLGTVVSEWDYDYDYWGQGTQVTVSS | 8.01 | 
3 | tcTRP9_(3)-VHH3 construct 680 (trimeric tcTRP9_(3) with VHH 72D61R on each subunit) (VHH, also called tcTRP9x3-VHH3; Trimeric VHH 72D61R; source: E. coli, purified (Ni-NTA, dialysis into 1x PBS)) VHH: QVQLQESGGGLVQAGGSLRLSCAASGRTFSEYAMGWFRQAPGKEREFVATISWSGGSTYYTRSVKGRFTISRDNAKNTVYLQMNSLKPDDTAVYYCAAAGLGTVVSEWDYDYDYWGQGTQVTVSS |  | EC50 [2]: 12 nM
4 | tcTRP9_(3)-VHH684_(3) (VHH, also called tcTRP9x3_VHH6843; construct 684; source: E. coli BL21(DE3)-RIL, purified (Ni-NTA, dialysis into 1x PBS)) VHH: QVQLQESGGGLVQAGGSLRLSCAASGRTFSEYAMGWFRQAPGKEREFVATISWSGGSTYYTRSVKGRFTISRDNAKNTVYLQMNSLKPDDTAVYYCAAAGLGTVVSEWDYDYDYWGQGTQVTVSS | 1.89 | 
5 | tcTRP9_(3)-VHH679_(3) (VHH, also called tcTRP9x3_VHH6793; construct 679; source: E. coli BL21(DE3)-RIL, purified (Ni-NTA, dialysis into 1x PBS)) VHH: QVQLQESGGGLVQAGGSLRLSCAASGRTFSEYAMGWFRQAPGKEREFVATISWSGGSTYYTRSVKGRFTISRDNAKNTVYLQMNSLKPDDTAVYYCAAAGLGTVVSEWDYDYDYWGQGTQVTVSS | 5.52 | 
6 | tcTRP9_(3)-VHH683_(3) (VHH, also called tcTRP9x3_VHH6833; construct 683; source: E. coli BL21(DE3)-RIL, purified (Ni-NTA, dialysis into 1x PBS)) VHH: QVQLQESGGGLVQAGGSLRLSCAASGRTFSEYAMGWFRQAPGKEREFVATISWSGGSTYYTRSVKGRFTISRDNAKNTVYLQMNSLKPDDTAVYYCAAAGLGTVVSEWDYDYDYWGQGTQVTVSS | 2.69 | 
7 | tcTRP9_(3)-VHH681_(3) (VHH, also called tcTRP9x3_VHH6813; construct 681; source: E. coli BL21(DE3)-RIL, purified (Ni-NTA, dialysis into 1x PBS)) VHH: QVQLQESGGGLVQAGGSLRLSCAASGRTFSEYAMGWFRQAPGKEREFVATISWSGGSTYYTRSVKGRFTISRDNAKNTVYLQMNSLKPDDTAVYYCAAAGLGTVVSEWDYDYDYWGQGTQVTVSS |  | koff [3]: 3.98e-05 s⁻¹
8 | tcTRP9_(3)-VHH682_(3) (VHH, also called tcTRP9x3_VHH6823; construct 682; source: E. coli BL21(DE3)-RIL, purified (Ni-NTA, dialysis into 1x PBS)) VHH: QVQLQESGGGLVQAGGSLRLSCAASGRTFSEYAMGWFRQAPGKEREFVATISWSGGSTYYTRSVKGRFTISRDNAKNTVYLQMNSLKPDDTAVYYCAAAGLGTVVSEWDYDYDYWGQGTQVTVSS | 4.65 | 
9 | tcTRP9_(3)-VHH681_(3) (trimeric tcTRP9_(3) with VHH 72D61R on each subunit, construct 681) (VHH, also called tcTRP9_(3)-VHH3; tcTRP9x3-VHH3; source: E. coli, purified (Ni-NTA, dialysis into 1x PBS)) VHH: QVQLQESGGGLVQAGGSLRLSCAASGRTFSEYAMGWFRQAPGKEREFVATISWSGGSTYYTRSVKGRFTISRDNAKNTVYLQMNSLKPDDTAVYYCAAAGLGTVVSEWDYDYDYWGQGTQVTVSS |  | Kd [4]: ~0.43 nM; EC50 [2]: 0.4 nM and ~0.64 nM
10 | tcTRP9x3_VHH685_(3) (VHH, also called construct 685; source: E. coli BL21(DE3)-RIL, purified (Ni-NTA, dialysis into 1x PBS)) VHH: QVQLQESGGGLVQAGGSLRLSCAASGRTFSEYAMGWFRQAPGKEREFVATISWSGGSTYYTRSVKGRFTISRDNAKNTVYLQMNSLKPDDTAVYYCAAAGLGTVVSEWDYDYDYWGQGTQVTVSS | 1.88 | 
